Test results reported in patent publication US20020037840A1 (GENETICS INSTITUTE, published 2002).

T1: full length form of human PSGL-1 (human, UniProt Q14242 42-412)
T1 construct: whole, on cells; Expressed whole in COS cells and precipitated from the cell lysate with the biotinylated anti-PSGL-1 antibody 2G3; also called P-selectin glycoprotein ligand; CD162
T1 sequence (looked up): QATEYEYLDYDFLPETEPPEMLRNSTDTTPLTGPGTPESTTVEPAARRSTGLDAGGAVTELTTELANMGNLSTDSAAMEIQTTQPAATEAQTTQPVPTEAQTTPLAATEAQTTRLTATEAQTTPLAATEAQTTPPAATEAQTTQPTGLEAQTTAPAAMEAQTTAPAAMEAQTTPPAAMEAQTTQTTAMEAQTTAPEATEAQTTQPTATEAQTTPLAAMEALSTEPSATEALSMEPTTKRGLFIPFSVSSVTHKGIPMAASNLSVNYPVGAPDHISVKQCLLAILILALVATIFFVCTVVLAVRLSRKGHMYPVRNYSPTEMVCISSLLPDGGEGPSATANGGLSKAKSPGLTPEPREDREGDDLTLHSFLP


Biological target: T1, full length form of human PSGL-1
Test: co-immunoprecipitation from COS cell lysates with anti-PSGL-1 antibody 2G3, anti-T7 Western blot
Protocol: COS cells were transfected with T7-tagged forms of SLIC-1 as described in Example 3. Vector pMT-PL85A (Genetics Institute) was included in a subset of samples to transiently overexpress the full length form of human PSGL-1. Cell lysis was carried out as described above in 900 μL/dish of lysis buffer consisting of 20 mM Tris-HCl, pH 7.4, 137 mM NaCl, 0.05% Triton-X and protease inhibitors (Hildt, E and Oess, S J 1999 J. Exp. Med. 189(11): 1707-1714). A small volume of cleared cell lysate was used for Western Blotting to detect overexpressed protein in the whole cell lysate and for spectrophotometric measurement of the protein content. A volume of 300 μL of each lysate was used for co-immunoprecipitation studies with either 2.5 μg of biotinylated monoclonal mouse anti-PSGL-1 antibody (antibody 2G3, Genetics Institute) or a biotinylated control antibody (SIGMA). The samples were agitated at 4° C. for 5 hours, and immuncomplexes were precipitated with streptavidin agarose beads (Pierce) under the same conditions for 1 hour. […] The presence of T7-tagged SLIC-1 protein in the samples was detected by Western blot analysis using an anti-T7 Horse Radish Peroxidase LumiBlot Kit (Novagen) according to the manufacturer's instructions.

binding result | Binder
no binding | T7-tagged truncated SLIC-1 protein comprising amino acid residues 1-88 (other, also called T7SLIC-1AA88; encoded by PED.T7U5AA88) MASMTGGQQMGMASPEHPGSPGCMGPITQCTARTQQEAPATGPDLPHPGPDGHLDTHSGLSSNSSMTTRELQQYWQNQKCRWKHVKLLFEIASARIEER
no binding | T7-tagged truncated SLIC-1 protein comprising amino acid residues 1-160 (other, Made with a linker; also called T7SLIC-1AA160; encoded by pED.T7U5AA160) MASMTGGQQMGMASPEHPGSPGCMGPITQCTARTQQEAPATGPDLPHPGPDGHLDTHSGLSSNSSMTTRELQQYWQNQKCRWKHVKLLFEIASARIEERKVSKFVVYQIIVIQTGSFDNNKAVLERRYSDFAKLQKALLKTFREEIEDVEFPRKHLTGNFAEEMICERRRA
